Laboratory results reported in US6495314 (Scripps Research, dated 2002).
Residue numbers refer to the chain shown, from its start. Names and notes keep the numbering of the source.

B1: c-Crk N-terminal SH3 domain (134-191) analogue, dipeptide DI (157-158) replaced by Gly-[COS]-Gly (other)
chain: AEYVRALFDFNGNDEEDLPFKKGGGLRIRDKPEEQWWNAEDSEGKRGMIPVPYVEKYR
modifications: not fully specified; Gly-[COS]-Gly unit (-NHCH2CO-SCH2CO-) in place of D157-I158; backbone thioester (S in place of the NH of residue 158)
notes: Member of the nine-member Gly-[COS]-Gly array over cCrk(156-165); Positions count on murine c-Crk; also called DI (Gly-[COS]-Gly array)
B2: c-Crk N-terminal SH3 domain (134-191) analogue, dipeptide RD (162-163) replaced by Gly-[COS]-Gly (other)
chain: B1 chain with G24D, G25I, R29G, D30G
modifications: not fully specified; Gly-[COS]-Gly unit (-NHCH2CO-SCH2CO-) in place of R162-D163; backbone thioester (S in place of the NH of residue 163)
notes: Member of the nine-member Gly-[COS]-Gly array over cCrk(156-165); Positions count on murine c-Crk; also called RD (Gly-[COS]-Gly array)
B3: c-Crk N-terminal SH3 domain (134-191) analogue, dipeptide KP (164-165) replaced by Gly-[COS]-Gly (other)
chain: B1 chain with G24D, G25I, K31G, P32G
modifications: not fully specified; Gly-[COS]-Gly unit (-NHCH2CO-SCH2CO-) in place of K164-P165; backbone thioester (S in place of the NH of residue 165)
notes: Member of the nine-member Gly-[COS]-Gly array over cCrk(156-165); Positions count on murine c-Crk; also called KP (Gly-[COS]-Gly array)
B4: c-Crk N-terminal SH3 domain (134-191) analogue, dipeptide RI (160-161) replaced by Gly-[COS]-Gly (other)
chain: B1 chain with G24D, G25I, R27G, I28G
modifications: not fully specified; Gly-[COS]-Gly unit (-NHCH2CO-SCH2CO-) in place of R160-I161; backbone thioester (S in place of the NH of residue 161)
notes: Member of the nine-member Gly-[COS]-Gly array over cCrk(156-165); Positions count on murine c-Crk; also called RI (Gly-[COS]-Gly array)
B5: c-Crk N-terminal SH3 domain (134-191) analogue, dipeptide LR (159-160) replaced by Gly-[COS]-Gly (other)
chain: B1 chain with G24D, G25I, L26G, R27G
modifications: not fully specified; Gly-[COS]-Gly unit (-NHCH2CO-SCH2CO-) in place of L159-R160; backbone thioester (S in place of the NH of residue 160)
notes: Member of the nine-member Gly-[COS]-Gly array over cCrk(156-165); Positions count on murine c-Crk; also called LR (Gly-[COS]-Gly array)
B6: Ac-CWAcp-PPPALPPKKR.amide, C3G-derived peptide designed for attachment to an affinity column (peptide)
peptide: CWPPPALPPKKR
modifications: N-terminal acetyl; ε-aminocaproic acid (Acp, B) at position 3; C-terminal amide; on the column the Cys side chain is coupled to iodoacetyl agarose (Sulfolink)
notes: also called Acetyl-CWAcp-C3G; Ac-CWBPPPALPPKKR.amide
B7: c-Crk N-terminal SH3 domain (134-191) analogue, L^151P^152 replaced by Gly-[COS]-βAla (other)
chain: B1 chain with L18G, P19X, G24D, G25I
modifications: not fully specified; Gly-[COS]-βAla unit (-NH-CH2-CO-S-CH2-CH2-CO-) in place of L151-P152; backbone thioester
notes: Positions count on murine c-Crk; X = -S-CH2CH2-CO- unit; Tested crude in a pooled array; also called LP
B8: c-Crk N-terminal SH3 domain (134-191) analogue, dipeptide FK (153-154) replaced by Gly-[COS]-βAla (other)
chain: B1 chain with F20G, K21X, G24D, G25I
modifications: not fully specified; Gly-[COS]-βAla unit (-NH-CH2-CO-S-CH2-CH2-CO-) in place of F153-K154; backbone thioester
notes: It is one of the 19 dipeptide positions within c-Crk(146-165); Positions count on murine c-Crk; X = -S-CH2CH2-CO- unit; Tested crude in a pooled array
B9: c-Crk N-terminal SH3 domain (134-191) analogue, N^146D^147 replaced by Gly-[COS]-βAla (other)
chain: B1 chain with N13G, D14X, G24D, G25I
modifications: not fully specified; Gly-[COS]-βAla unit (-NH-CH2-CO-S-CH2-CH2-CO-) in place of N146-D147; backbone thioester
notes: Positions count on murine c-Crk; X = -S-CH2CH2-CO- unit; Tested crude in a pooled array; also called ND
B10: c-Crk N-terminal SH3 domain (134-191) analogue, dipeptide KK (154-155) replaced by Gly-[COS]-βAla (other)
chain: B1 chain with K21G, K22X, G24D, G25I
modifications: not fully specified; Gly-[COS]-βAla unit (-NH-CH2-CO-S-CH2-CH2-CO-) in place of K154-K155; backbone thioester
notes: as for B8
B11: c-Crk N-terminal SH3 domain (134-191) analogue, dipeptide ED (149-150) replaced by Gly-[COS]-βAla (other)
chain: B1 chain with E16G, D17X, G24D, G25I
modifications: not fully specified; Gly-[COS]-βAla unit (-NH-CH2-CO-S-CH2-CH2-CO-) in place of E149-D150; backbone thioester
notes: Positions count on murine c-Crk; X = -S-CH2CH2-CO- unit; Tested crude in a pooled array
B12: c-Crk N-terminal SH3 domain (134-191) analogue, dipeptide DL (150-151) replaced by Gly-[COS]-βAla (other)
chain: B1 chain with D17G, L18X, G24D, G25I
modifications: not fully specified; Gly-[COS]-βAla unit (-NH-CH2-CO-S-CH2-CH2-CO-) in place of D150-L151; backbone thioester
notes: as for B11
B13: c-Crk N-terminal SH3 domain (134-191) analogue, E^148E^149 replaced by Gly-[COS]-βAla (other)
chain: B1 chain with E15G, E16X, G24D, G25I
modifications: not fully specified; Gly-[COS]-βAla unit (-NH-CH2-CO-S-CH2-CH2-CO-) in place of E148-E149; backbone thioester
notes: as for B11
B14: c-Crk N-terminal SH3 domain (134-191) analogue, dipeptide KG (155-156) replaced by Gly-[COS]-βAla (other)
chain: B1 chain with K22G, G23X, G24D, G25I
modifications: not fully specified; Gly-[COS]-βAla unit (-NH-CH2-CO-S-CH2-CH2-CO-) in place of K155-G156; backbone thioester
notes: as for B8
B15: c-Crk N-terminal SH3 domain (134-191) analogue, dipeptide PF (152-153) replaced by Gly-[COS]-βAla (other)
chain: B1 chain with P19G, F20X, G24D, G25I
modifications: not fully specified; Gly-[COS]-βAla unit (-NH-CH2-CO-S-CH2-CH2-CO-) in place of P152-F153; backbone thioester
notes: as for B8
B16: c-Crk N-terminal SH3 domain (134-191) analogue, D^147E^148 replaced by Gly-[COS]-βAla (other)
chain: B1 chain with D14G, E15X, G24D, G25I
modifications: not fully specified; Gly-[COS]-βAla unit (-NH-CH2-CO-S-CH2-CH2-CO-) in place of D147-E148; backbone thioester
notes: Positions count on murine c-Crk; X = -S-CH2CH2-CO- unit; Tested crude in a pooled array; also called DE

Molecular target: B6
Experiment: Gly-[COS]-Gly array on C3G peptide affinity column, MALDI MS readout (FIG. 27A)

Binder	binding result
B1	binds
B2	binds
B3	binds
B4	binds
B5	binds

These binders were tested against BSA (UniProt P02769 25-607) (assay: C3G peptide affinity column, stepwise NaCl washes, A280 and mass spectrometry).
Experimental: The column was washed with 4 mL each of 50 mM NaCl, 100 mM NaCl, 200 mM NaCl, 300 mM NaCl, 400 mM NaCl, 500 mM NaCl and 1000 mM NaCl, 0.1 M phosphate, pH 7.0 buffer. The column was then washed with 1 M NH_2OH 200 mM NH_4CO_3 pH 6.0 (4 mL) and finally eluted in 6M Gn.HCl 100 mM phosphate pH 6.5 (4 mL). Samples from all column fractions were monitored by absorbance at 280 nm and by HPLC.

Chain of BSA (P02769 25-607 limits assumed): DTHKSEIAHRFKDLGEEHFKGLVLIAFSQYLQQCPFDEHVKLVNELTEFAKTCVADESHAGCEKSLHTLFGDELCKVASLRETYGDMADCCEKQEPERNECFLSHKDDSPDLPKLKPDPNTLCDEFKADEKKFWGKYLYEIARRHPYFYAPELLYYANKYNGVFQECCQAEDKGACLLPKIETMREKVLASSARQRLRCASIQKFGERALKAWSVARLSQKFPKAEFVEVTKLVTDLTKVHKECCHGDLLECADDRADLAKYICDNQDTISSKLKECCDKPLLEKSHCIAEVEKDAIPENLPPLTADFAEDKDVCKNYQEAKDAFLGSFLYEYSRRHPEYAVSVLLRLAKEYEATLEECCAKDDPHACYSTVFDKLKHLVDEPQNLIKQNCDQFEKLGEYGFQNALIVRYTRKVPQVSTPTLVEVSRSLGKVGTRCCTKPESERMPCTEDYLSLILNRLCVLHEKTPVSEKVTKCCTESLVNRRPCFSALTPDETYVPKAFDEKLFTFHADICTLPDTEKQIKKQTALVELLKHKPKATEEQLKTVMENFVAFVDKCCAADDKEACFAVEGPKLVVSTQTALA

Binder	binding result
B6	no binding

Molecular target: B6
Experiment: 19-member array on C3G peptide affinity column, MALDI MS readout

Binder	binding result
B7	binds
B8	no binding
B9	binds
B10	no binding
B11	no binding
B12	no binding
B13	binds
B14	no binding
B15	no binding
B16	binds

Each binder was assayed against T1, synthetic murine cCrk N-terminal SH3 domain (residues 134-191) (murine, UniProt Q64010 134-191) (assay: tryptophan fluorescence titration in solution, 12 hours incubation).
T1 construct: Made by total chemical synthesis and folded in HEPES/NaCl buffer; also called cCrk(134-191); c-Crk SH3
Experimental: The resulting synthetic protein domain was then assayed for its affinity for two different proline-rich peptides. […] This change in solvent exposure leads to an increase in the fluorescence intensity of the tryptophan sidechain which can be monitored as a function of increasing ligand concentration (Feng et al. *Science* 1994.266, 1241–1245).
1994, 3, 1261–1266. The purified and lyophilized 58 residue polypeptide chain (0.2 mg) was folded by dissolving in 0.6 mL of 20 mM Hepes, 60 mM NaCl, pH 7.3 to produce a folded protein solution (~50 μM).

Binder	Kd [nM]
B6	2400
